Measurements published in US5932425A, “Compositions and methods for modulating cellular NF-κB activation” (Signal Pharmaceuticals, Inc., priority 1997, dated 1999).
Values belong to the molecule of their own block, whether it stands above or below them. Non-standard residues stand in square brackets, D forms with d. No end group written: not given here. pS = N[C@@H](COP(=O)(O)O)C(=O)O

Tests used:
[1] = biological target: pIκBα ubiquitination (E3 ubiquitin ligase); assay: In vitro ubiquitination assay of phosphorylated, NF-κB complex-associated IκBα; format: biochemical, human; settings: complex-associated 35S-pIκBα, HeLa extract, Bestatin 40 μg/ml; read-out: IC50 of inhibition of the pIκBα ubiquitin conjugation reaction
Experimental: Following incubation, 1 μl of anti-p65 serum was added, and the NF-κB immune complex was immobilized to Protein A-Sepharose® and subjected to in vitro ubiquitination in HeLa cell extract as described by Alkalay et al. Ubiquitinated proteins were separated by SDS-PAGE and visualized by autoradiography.
To identify the IκBα-ubiquitin ligase recognition motif, various peptides were added at varying concentrations to the reaction mixtures in the presence of the peptidase inhibitor Bestatin (40 μg/ml). The peptides spanned the N-terminal signaling domain of the protein, and were phosphorylated at one or both serine residues (32 and 36), or were unmodified or serine-substituted. These peptides were included in the ubiquitination reaction at different concentrations and tested for inhibition of pIκBα specific ubiquitination. When conjugation of free IκBα was monitored, the translated protein was added directly to the conjugation reaction mixture.

[2] = test system: NF-κB nuclear translocation in HeLa cells; assay: Microinjection into HeLa cells, TNFα activation, p65 nuclear staining; format: cell-based, human; settings: 5 mg/ml microinjected, TNFα 200 units/mL for 20 minutes
Experimental: Following microinjection, cells are stimulated (e.g., with TNFα) and incubated to allow NF-κB activation. In HeLa cells, TNFα induces rapid nuclear translocation of NF-κB into the nucleus, which may be detected by staining with p65-specific antibodies. Modulating agents induce a statistically significant decrease in NF-κB translocation, and may reduce such translocation to undetectable levels.
(§1) HeLa cells were plated on a grid coverslips (Cellocate, Eppendorf) 18 hours before microinjection. Microinjection was performed with a 22 amino acid pIκBα peptide (pp21; Table I and SEQ ID NO:9) or a control phospho-Fos peptide (SEQ ID NO:10) using a semi-automated apparatus (Eppendorf). Peptides were injected into the cell cytoplasm at a concentration of 5 mg/ml in 100 mM KCl, 5 mM Na2 HPO4 (pH 7.2), and immediately activated with TNFα (200 units/mL) for either 20 minutes (for NF-κB translocation) or 3 hours (for E-selectin expression). Following activation, the cells were fixed and stained with p65 specific antibodies (Mercurio et al., Genes & Dev. 7:705, 1993; Santa Cruz) or monoclonal anti-E-selectin antibodies (R&D Systems).

[3] = test system: E-selectin expression in HUVEC; assay: Microinjection into HUVEC, TNFα activation, E-selectin staining; format: cell-based, human; settings: 5 mg/ml microinjected, TNFα 3 hours
Source text: Primary human vascular endothelial cells (HUVEC) respond to TNFα stimulation by surface expression of NF-κB regulated adhesion proteins such as ICAM-1, V-CAM-1 and E-selectin (Read et al., Immunity 2:493,1995; Chen et al., J. Immunol 155:3538, 1995). E-selectin expression is particularly NF-κB dependent and is the major inducible endothelial adhesion molecule for initial neutrophil attachment and rolling on activated endothelium. Stimulated cells may be fixed and stained to detect expression of one or more NF-κB regulated adhesion proteins.
as §1, with “Systems). […]” for “Systems).”

[4] = biological target: specific E3 ubiquitin ligase that recognises phosphorylated IκB

Molecule: CDS*GLDS*M (CD[pS]GLD[pS]M) [pp7]
- IC50 [1]: 10 µM

Molecule: CKKERLLDDRHDS*GLDS*MKDEE (CKKERLLDDRHD[pS]GLD[pS]MKDEE) [pp21]
- microinjected cells in which TNFα-stimulated NF-κB activation was abolished [2]: 50%-70%
- microinjected cells with inhibition of E-selectin expression [3]: 70%-80%

- IC50 of inhibition of the pIκB conjugation reaction [4]: 5 µM
Molecule: CKKERLLDDRHD[pS]GLD[pS]MKDEE [doubly phosphorylated IκBα peptide pp21]

- IC50 of inhibition of the pIκBα conjugation [4]: 400 µM
Molecule: CKKERLLDDRHD[pS]GLDSMKDEE [singly phosphorylated IκBα peptide ppS32]

- IC50 of inhibition of the pIκBα conjugation [4]: 400 µM
Molecule: CKKERLLDDRHDSGLD[pS]MKDEE [singly phosphorylated IκBα peptide ppS36]

- IC50 of inhibition of the pIκB conjugation reaction [4]: 5 µM
Molecule: CERLLDDRHD[pS]GLD[pS]MKDEE [doubly phosphorylated IκBα peptide pp19]

- IC50 of inhibition of the pIκB conjugation reaction [4]: 5 µM
Molecule: CDDRHD[pS]GLD[pS]M [doubly phosphorylated IκBα peptide pp11]

- IC50 of inhibition of the pIκB conjugation reaction [4]: 5 µM
Molecule: CDDRHD[pS]GLD[pS]MKDEE [doubly phosphorylated IκBα peptide pp15]

- IC50 of inhibition of pIκBα ubiquitination [4]: 10 µM
Molecule: CD[pS]GLD[pS]M [doubly phosphorylated IκBα peptide pp7]
